From publication PMC4543939

Molecular target: Cer-PLN-AFA and YFP-PLN-AFA: canine phospholamban AFA mutant fused at its N-terminus with mCerulean or enhanced YFP (canine) (UniProt P61012)
Experiment: FRET or BRET; in-cell binding assay, acceptor sensitization FRET in living AAV-293 cells co-transfected with Cer-PLN-AFA and YFP-PLN-AFA (1:5); FRET against relative protein concentration cell by cell, hyperbolic fit; apparent KD1 of the PLN-PLN oligomer; with or without 1 uM 50-mer ssDNA

Cer-PLN-AFA and YFP-PLN-AFA: canine phospholamban AFA mutant fused at its N-terminus with mCerulean or enhanced YFP, sequence (P61012 whole entry, stated change not applied, the tested form may be a part): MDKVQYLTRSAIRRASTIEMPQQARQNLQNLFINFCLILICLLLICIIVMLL

Substance: Cer-PLN-AFA and YFP-PLN-AFA: canine phospholamban AFA mutant fused at its N-terminus with mCerulean or enhanced YFP (from UniProt P61012 1-52) (natural protein)
- increase in PLN oligomerization with 50-mer ssDNA against no ssDNA: 20%
